The record followed here is the nanobody polyreactivity screen of Harvey et al. (2022).

The data set can be described thus: yeast display, Sf9 membrane polyspecificity reagent, FACS + sequencing; frameworks hold sequencing errors. The method in brief: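 A nanobody's polyreactivity label depends on the gate it was sorted from. Yeast display cells were stained with 10% biotinylated, detergent-solubilized Sf9 membrane reagent for 1 hour at 4 °C, enriched on streptavidin microbeads and sorted by FACS. The low and high (top ~1%) gates were set on anti-HA fluorescence for expression and streptavidin fluorescence for reagent binding.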
Consider “QVQLVESGGGLVQAGGSLRLSCAASGSTFVGYAMGWYRQAPGKERELVADIDSIGGSTYYADSVKGRFTISRDNAKNTVYLQMNSLKPEDTAVYYCAARRFDTALVLYDYCGQGTQVTVSS”, for which the “polyreactivity (PSR sort gate)” value is given as “low polyreactivity”.

As to “QVQLVESGGGLVQAGGSLRLSCAASGSTFVGYAMGWYRQAPGKERELVADIDSIGGSTYYADSVKGRFTISRDNAKNTVYVQMNSLKPEDTAVYYCAARRFDTALVLYDYWGQGTQVTVSS”, the “polyreactivity (PSR sort gate)” value is “low polyreactivity”.

With “QVQLVESGGGLVQAGGSLRLSCAASGSTFVGYAMGWYRQAPGKERELVADIDSIGGSTYYADSVKRRFTISRDNAKNTVYLQMNSLKPEDTAVYDCAAYQHPGLRTSYEYWGQGTQVTVSS”, the “polyreactivity (PSR sort gate)” value is reported as “low polyreactivity”.

As to “QVQLVESGGGLVQAGGSLRLSCAASGSTFVGYAMGWYRQAPGKERELVADITSGGGITYYADSVKGRFTISRDNAKNTVYLQMNSLKPEDTAVYYCAVQYYNVLYYQYDYWGQGTQVTVSS”, the “polyreactivity (PSR sort gate)” value is given as “low polyreactivity”.

On to “QVQLVESGGGLVQAGGSLRLSCAASGSTFVGYAMGWYRQAPGQERELVAGITINGGSTYYADSVKGRFTISRDNAKNTVYLQMNSLKPEDTAVYYCAATGNENYPDPLQSMDYWGQGTQVTVSS”, for which the “polyreactivity (PSR sort gate)” value is “low polyreactivity”.

For the sequence “QVQLVESGGGLVQAGGSLRLSCAASGSTFVGYAMGWYRQAPGTERDLVAAISSSGSTNYADSVKGRFTISRDNAKNTVYLQMNSLKPEDTAVYYCAALYSYFWLIIDYGYWGQGTQVTVSS”, the “polyreactivity (PSR sort gate)” value was “low polyreactivity”.

Take “QVQLVESGGGLVQAGGSLRLSCAASGSTFVINAMGWYRQAPGKERELVAAISYDGGGTYYADSVKGRFTISRDNAKNTVYLQMNSLKPEDTAVYYCAAENFYPYTYYASDYWGQGTQVTVSS”: the “polyreactivity (PSR sort gate)” value was “high polyreactivity”.

Regarding “QVQLVESGGGLVQAGGSLRLSCAASGSTFVKNSMGLYRQAPGKERELVAVISWPGSSTYYADSVKGRFTISRDNAKNTDYLQMISLKPEDTAVYYCNAPKIRPGSHTRHYYWGQGTQVTVSS”, the “polyreactivity (PSR sort gate)” value was “low polyreactivity”.

For the sequence “QVQLVESGGGLVQAGGSLRLSCAASGSTFVKYAMGWYRQAPGKERELVAVISSAGSTNYADSVKGRFTISRDNAKNTVYLQMNSLKPEDTAVYYCNAEPTTPYWDYWAYEDDYWGQGTQVTVSS”, the “polyreactivity (PSR sort gate)” value was “low polyreactivity”.

With “QVQLVESGGGLVQAGGSLRLSCAASGSTFVLYALGWYRQPPGKERELVAVISWSGGSTYYADSVKGRFTISRDKAKNTVYLQMNSLKPEDTADYYCAATGWSSFYYRFDYWGQGTQVTVSS”, the “polyreactivity (PSR sort gate)” value is given as “low polyreactivity”.

Take “QVQLVESGGGLVQAGGSLRLSCAASGSTFVNNAMGWYRQAPGKERELVAAISWSGGSTYYADSVKGRFTISRDNAKNTVYLQMNSLNPEDTAVYYCAADGNARAAMDYWGQGTQVTVSS”: the “polyreactivity (PSR sort gate)” value is “low polyreactivity”.

In the case of “QVQLVESGGGLVQAGGSLRLSCAASGSTFVNNAMGWYRQAPGKERELVAAITNGGSTNYADSVKGRFTISRDNAKNTVYLQMNSLKPEDTAVYYCAKYGDPYRHRSGTVEYGYWGQGTQVTVSS”, the “polyreactivity (PSR sort gate)” value is “low polyreactivity”.

Turning to “QVQLVESGGGLVQAGGSLRLSCAASGSTFVPNAMGGSRPAPGKERELVAAISYSGGTTYYADSVKGRFTISRDNAKNTVYLQMNSLKPEDTAVYYCAARSKGAAAILDDYWGQGTQVTVSS”, the “polyreactivity (PSR sort gate)” value is reported as “low polyreactivity”.

In the case of “QVQLVESGGGLVQAGGSLRLSCAASGSTFVPNAMGWYRQAPGKEREFVAAIRVSGDNTYYADSVKGRFTISRDNAKNTVYLQMNSLKPEDTGVYYCAATGTVLGSVDYWGQGTQVTVSS”, the “polyreactivity (PSR sort gate)” value is given as “low polyreactivity”.

For the sequence “QVQLVESGGGLVQAGGSLRLSCAASGSTFVPNAMGWYRQAPGKERELVAAISSVGSTNYADSVKGRFTISRDNAKNTVYLQMNSLKPEDTAVYYCAVRYPWRYFKYGYWGQGTQVTVSS”, the “polyreactivity (PSR sort gate)” value is reported as “low polyreactivity”.

“QVQLVESGGGLVQAGGSLRLSCAASGSTFVPNDMGWYRQAPGKEMELVAGISSGGGTYADSVKGRFTISRDNAKNTVYLQLNSLKPVDTAVYYCNALHAYYVLTPYDYWGQGTQVTVSS”: the “polyreactivity (PSR sort gate)” value is given as “low polyreactivity”.

“QVQLVESGGGLVQAGGSLRLSCAASGSTFVPYAMGWYRQAPGKEREFVAGITWSVGSTYYADSVKGRFTISRDNAKNTVYLQMNSLKPEDTAVYYCNAEIYAYFLWWYGYWGQGTQVTVSS”: the “polyreactivity (PSR sort gate)” value was “low polyreactivity”.

Regarding “QVQLVESGGGLVQAGGSLRLSCAASGSTFVQNAMGWYRQAPGKERELVAAISRTGGSTYYADSVKGRITFSRDNAKNTVYLQLNTLKPEDTAVYFCAKRPPHYSWPKIIEFGSWGQGTQVTVSS”, the “polyreactivity (PSR sort gate)” value was “high polyreactivity”.

Consider “QVQLVESGGGLVQAGGSLRLSCAASGSTFVRNAMGWYRQAPGKERELVAAITWSTGTTYYADSVKGRFTISRDNAKNTVYLQMNSLKPEDTAVYYCAADIYTELFKHDYWGQGTQVTVSS”, for which the “polyreactivity (PSR sort gate)” value is “low polyreactivity”.

“QVQLVESGGGLVQAGGSLRLSCAASGSTFVRNDMGWYRQAPGKERELVAAINGDGRTYYADSVKGRFTISRDNAKNTVYLQLNSLKPEDTAVYYCAADGYLLYVQHPNGRRYDYWGQGTQVTVSS”: the “polyreactivity (PSR sort gate)” value is “low polyreactivity”.

As to “QVQLVESGGGLVQAGGSLRLSCAASGSTFVRNGMGWYRQAPGKERELVASISGRGGSTYYADSVKGRFTISRDNAKNTVYLQMNSLKPEDTAVYYCAVRYGFYSRYNYWGQGTQVTVSS”, the “polyreactivity (PSR sort gate)” value is recorded as “high polyreactivity”.

On to “QVQLVESGGGLVQAGGSLRLSCAASGSTFVRYAMGWYRPAPGKERELVAVISSSGGTTYYADSVKGRFTISRDNAKNTVYLQMNSLKPEDTAVYSCARRVRWWGPRRSDFDYWGQGTQVTVSS”, for which the “polyreactivity (PSR sort gate)” value is “high polyreactivity”.

For “QVQLVESGGGLVQAGGSLRLSCAASGSTFVRYAMGWYRQAPGKDRELVARISSAGSTNYADSVKGRFTISRDNAKNTVYLQMNSLKPEDTAVYYCAATTKAGVSSGQGDSWGQGTQVTVSS”, the “polyreactivity (PSR sort gate)” value was “low polyreactivity”.

Take “QVQLVESGGGLVQAGGSLRLSCAASGSTFVRYAMGWYRQAPGKERELVAAITGTGSSTYYADSVKGRFTISRDNAKNTVYLQMNSLKPEDTAVYYCAKRWRTVFGYDYWGQGTQVTVSS”: the “polyreactivity (PSR sort gate)” value is “high polyreactivity”.

With “QVQLVESGGGLVQAGGSLRLSCAASGSTFVRYAMGWYRQAPGKERELVAGISSGDRTYYADSVKGRFTISRDNAKNTVYLQMNSLKPEDTAVYYCNARPVYLLEGYYWGQGTQVTVSS”, the “polyreactivity (PSR sort gate)” value is reported as “low polyreactivity”.

Take “QVQLVESGGGLVQAGGSLRLSCAASGSTFVRYAMGWYRQEPGKERELVAAISKSGGSTYYADSVKGRFTISRDNAKNTVYLQMNSLKPEDTAVYYCNADVYKNSKFRIMGYWGQGTQVTVSS”: the “polyreactivity (PSR sort gate)” value is “low polyreactivity”.

On to “QVQLVESGGGLVQAGGSLRLSCAASGSTFVRYVMGWYRQAPGKERELVAAISRRGGSTYYADSVKGRFTISRDNAKNTVYLQMHSLKPEDSAVYYCARTVGYSTLLESVSWGQGTQLTVSS”, for which the “polyreactivity (PSR sort gate)” value is recorded as “high polyreactivity”.

On to “QVQLVESGGGLVQAGGSLRLSCAASGSTFVSNAMGWYRPAPGKERELVAAISTSGGSTYYADSVKGRFTISRDNAKNTVYLLMNSLKPEDTAVYYCAKLLARGFRIWQDYDYWGQGTQVTVSS”, for which the “polyreactivity (PSR sort gate)” value is “low polyreactivity”.

As for “QVQLVESGGGLVQAGGSLRLSCAASGSTFVSNAMGWYRQAPGKERELVAGISWSGGSTYYADSVKGRFTISRDNAKNTVYLQMHSLKPEDTAVYYCNAVYRPRQFDYWGQGTQVTVSS”, the “polyreactivity (PSR sort gate)” value is “low polyreactivity”.

For the sequence “QVQLVESGGGLVQAGGSLRLSCAASGSTFVSNAMGWYRQAPGKERELVASISQSGGGTDYADSVKGRFTISRDNAKNTVYLQMNSLKPEDTAVYYCAADRVPVQAPYDYWGQGTQVTVSS”, the “polyreactivity (PSR sort gate)” value was “high polyreactivity”.

In the case of “QVQLVESGGGLVQAGGSLRLSCAASGSTFVSNGMGWYRQAPGKERELVAAITRGGSTKYADSVKGRFTISRDNAKNTVYLQMNSLKPEDTAVYYCAKRLYTRPGWYDYWGQGTQVTVSS”, the “polyreactivity (PSR sort gate)” value is “high polyreactivity”.

As to “QVQLVESGGGLVQAGGSLRLSCAASGSTFVSYAMGWYRQAPGKERELVAAISISDSSTYYADSVKGRFSISRDNAKNTVYLQMNSLKPEDTAVYYCNRYDFWGQGTQVTVSS”, the “polyreactivity (PSR sort gate)” value is listed as “low polyreactivity”.

Regarding “QVQLVESGGGLVQAGGSLRLSCAASGSTFVSYAMGWYRQAPGKERELVAASSRSGGSTYYADSVKGRFTISRDNAKNTVYLQMNILIPEDTAVYYCAADGRGPSKRNRDYWGQGTQVTVSS”, the “polyreactivity (PSR sort gate)” value is reported as “high polyreactivity”.

Turning to “QVQLVESGGGLVQAGGSLRLSCAASGSTFVSYAMGWYRQAPGKERELVAGITRRGGTTYYADSVKGRFTISRDNAKNTVYLQMNSLKPEDTAVYYCARYSLYTGYRRYPLDYDYWGQGTQVTVSS”, the “polyreactivity (PSR sort gate)” value is recorded as “high polyreactivity”.

As to “QVQLVESGGGLVQAGGSLRLSCAASGSTFVSYDMGWYRQAPGKERELVADISWSGVSTYADSVKGRFTISRDNAKNTVYLQMNSLKPEDTAVYYCATDDARRGYGYGYWGQGTQVTVSS”, the “polyreactivity (PSR sort gate)” value is recorded as “low polyreactivity”.

Regarding “QVQLVESGGGLVQAGGSLRLSCAASGSTFVTNAMGWYRQAPGTEREFVAAISWISTSTYYADSVKGRFTISRDNAKNTVYLQMNSLKPEDTAVYYCNATTFAFSPSLKGAYGYWGQGTQVTVSS”, the “polyreactivity (PSR sort gate)” value is recorded as “low polyreactivity”.

Consider “QVQLVESGGGLVQAGGSLRLSCAASGSTFVTYAMGCYRQAPGKERELVAVITYSGGNTYYADSVKGRVTISRDNAKNTVYLQMNSLKPEDTAVYDCAAAWLTSRGSRDSHRKYYYWGQGTQVTVSS”, for which the “polyreactivity (PSR sort gate)” value is on record as “high polyreactivity”.

Regarding “QVQLVESGGGLVQAGGSLRLSCAASGSTFVTYAMGWYRQAPGKERELVAAIDSGGNTNYADSVKGRFTISRDNAKNTVYLQMNSLKPEDTAVYYCAVRPYELHRLDDQPGGDDYWGQGTQVTVSS”, the “polyreactivity (PSR sort gate)” value is reported as “low polyreactivity”.

“QVQLVESGGGLVQAGGSLRLSCAASGSTFVTYGMGWYRQAPGKERELVAAITRDSSTNDADSVKGRFTISRDNAKNTVYLQLNSLKPEDTAVYYCATPRLPNFIGTEYDYWGQGTQVTVSS”: the “polyreactivity (PSR sort gate)” value is reported as “low polyreactivity”.

“QVQLVESGGGLVQAGGSLRLSCAASGSTFVVNAMGWYRQAPGKERELVAAIDDGAGDTYYADSVKGRFTISRDNAENTVYLQMNSLKPEDTAVYYCAADTWYQMDYWGQGTQVTVSS”: the “polyreactivity (PSR sort gate)” value is “low polyreactivity”.
